In experiment [1] the target is T1, Human TROP2 Protein, His Tag (Acro Biosystems) (human, UniProt P09758 27-274).
T1 construct: Bought protein; not shown: His tag
T1 sequence (looked up): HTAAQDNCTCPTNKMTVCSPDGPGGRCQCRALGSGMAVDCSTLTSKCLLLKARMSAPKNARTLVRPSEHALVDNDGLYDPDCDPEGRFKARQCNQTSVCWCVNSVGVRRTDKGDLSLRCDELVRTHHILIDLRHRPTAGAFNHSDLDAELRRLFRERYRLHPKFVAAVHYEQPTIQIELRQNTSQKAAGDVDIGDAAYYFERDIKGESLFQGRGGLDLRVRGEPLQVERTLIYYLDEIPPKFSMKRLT
The experiment is described as follows: BLI (Octet). (In general: BLI is a label-free optical method that tracks binding on a fibre tip over time.)

Experiment [2] addresses T2, Human TROP2 Protein, His Tag (Acro Biosystems) (human, UniProt P09758 27-274).
T2 construct: also called TACSTD2; not shown: His tag
T2 sequence (looked up): T1 sequence (looked up)
Kind of experiment: BLI (Octet) [1/2].

Experiment [3] deals with T3, Human TROP2 Protein, His Tag (Acro Biosystems) (human, UniProt P09758 27-274).
T3 construct: Bought antigen used at 50 nM in the Octet screen; also called TACSTD2; not shown: His tag
T3 sequence (looked up): T1 sequence (looked up)
Kind of experiment: BLI (Octet) [2/2]. As for the experimental part:
After allowing for four days of protein expression, cell culture supernatants were collected, quantified by SDS-PAGE analysis (DNS), and the pH dependence of the variant was evaluated using biolayer interferometry (BLI) on an Octet RED 96e instrument. Briefly, cell culture supernatants were diluted based on qualitative expression level of the variant determined by visual examination of SDS-PAGE gels, 5 μL of cell culture supernatant was diluted into 195 μL of 1×PBST, pH 7.4 for high expressors, 25 μL of cell culture supernatant was diluted into 175 μL of 1×PBST, pH 7.4 for medium expressors and 100 μL of cell culture supernatant was diluted into 100 μL of 1×PBST, pH 7.4 for low expressors for loading onto the sensor tips. The resulting diluted supernatants were then captured on an anti-human Fc sensor (Forte Bio). A baseline was established using 1×PBST (50 mM Potassium Phosphate Buffer+150 mM NaCl+0.05% Tween 20) pH 7.4, and the sensor was associated with 50 nM of TROP2 (Human TROP2 Protein, His Tag, Acro Biosystems) in 1×PBST pH 7.4 for 120 sec to generate an association curve. In the dissociation phase, the antibody-antigen complex on the sensor was exposed to 1×PBST pH 7.4 or pH 5.4, for 300 sec. Association and dissociation phase curves were examined for the starting ABPC antibody (with no substitutions) and each corresponding antibody variant at pH 5.4 and pH 7.4 to inform on two criteria: a) enhanced dissociation (i.e., higher koff values) at pH 5.4 due to histidine or alanine substitution compared to the starting ABPC, (with no substitutions), and b) reduced dissociation at pH 7.4 (i.e., lower koff values) compared to pH 5.4 in the antibody variant itself and with the starting ABPC (with no substitutions). […] It was also noted that while some mutations obliterated TROP2 binding, others were tolerated with little or n change in TROP2 binding kinetics.

Changes are numbered by the printed parent chain.

B1: MYT11622 (antibody, V domains shown)
VH: QVQLQQSGSELKKPGASVKVSCKASGYTFTNYGMNWVKQAPGQGLKWMGWINTYTGEPTYTDDFKGRFAFSLDTSVSTAYLQISSLKADDTAVYFCARGGFGSSYWYFDVWGQGSLVTVSS
VL: DIQLTQSPSSLSASVGDRVSITCKASQDVSIAVAWYQQKPGKAPKLLIYSASHRYTGVPDRFSGSGSGTDFTLTISSLQPEDFAVYYCQQHYITPLTFGAGTKVEIK
notes: Sacituzumab variant, His at LCV position 53 (L2 04)
Take B1: the binding result in experiment [1] is “binds”.

B2: MYT13367 (antibody, V domains shown)
VH: B1 VH with G33H
VL: B1 VL with S30H, V33H, H53Y
notes: Sacituzumab HC-LC pairing variant
Consider B2, for which the binding result in experiment [2] is “binds”.

B3: MYT11632 (antibody, V domains shown)
VH: B1 VH
VL: B1 VL with H53Y, P95H
notes: Sacituzumab variant, His at LCV position 95 (L3 07)
In the case of B3, in experiment [1], the binding result was “binds”.

B4: MYT13384 (antibody, V domains shown)
VH: B1 VH with Y60H
VL: B1 VL with S30H, S52H, H53Y
notes: as for B2
Turning to B4, the binding result in experiment [2] is “binds”.

B5: MYT11630 (antibody, V domains shown)
VH: B1 VH
VL: B1 VL with H53Y, I93H
notes: Sacituzumab variant, His at LCV position 93 (L3 05)
As to B5, in experiment [1], the binding result was “binds”.

B6: MYT11628 (antibody, V domains shown)
VH: B1 VH
VL: B1 VL with H53Y, H91A
notes: Sacituzumab variant, Ala at LCV position 91 (L3 03; His in the parent)
Regarding B6, the binding result in experiment [1] is on record as “binds”.

B7: MYT11625 (antibody, V domains shown)
VH: B1 VH
VL: B1 VL with H53Y, T56H
notes: Sacituzumab variant, His at LCV position 56 (L2 07)
As for B7, the binding result in experiment [1] was “binds”.

B8: MYT11633 (antibody, V domains shown)
VH: B1 VH
VL: B1 VL with H53Y, L96H
notes: Sacituzumab variant, His at LCV position 96 (L3 08)
Turning to B8, the binding result in experiment [1] is “binds”.

B9: MYT13391 (antibody, V domains shown)
VH: B1 VH with G33H
VL: B1 VL with V33H
notes: as for B2
For the molecule B9, in experiment [2], the binding result is on record as “binds”.

B10: MYT13389 (antibody, V domains shown)
VH: B1 VH with G66H
VL: B1 VL with S30H, S52H, H53Y
notes: as for B2
B10: the binding result in experiment [2] is “binds”.

B11: MYT11629 (antibody, V domains shown)
VH: B1 VH
VL: B1 VL with H53Y, Y92H
notes: Sacituzumab variant, His at LCV position 92 (L3 04)
On to B11, for which the binding result in experiment [1] is recorded as “binds”.

B12: MYT13375 (antibody, V domains shown)
VH: B1 VH with G33H
VL: B1 VL with S30H, A51H, H53Y
notes: as for B2
In the case of B12, the binding result in experiment [2] is “binds”.

B13: MYT13381 (antibody, V domains shown)
VH: B1 VH with G66H
VL: B1 VL with S30H, A51H, H53Y
notes: as for B2
Regarding B13, the binding result in experiment [2] is recorded as “binds”.

B14: MYT11634 (antibody, V domains shown)
VH: B1 VH
VL: B1 VL with H53Y, T97H
notes: Sacituzumab variant, His at LCV position 97 (L3 09)
For B14, in experiment [1], the binding result was “binds”.

B15: MYT11627 (antibody, V domains shown)
VH: B1 VH
VL: B1 VL with H53Y, Q90H
notes: Sacituzumab variant, His at LCV position 90 (L3 02)
Take B15: the binding result in experiment [1] is on record as “binds”.

B16: MYT13380 (antibody, V domains shown)
VH: B1 VH with K65H
VL: B1 VL with S30H, A51H, H53Y
notes: as for B2
As for B16, the binding result in experiment [2] is “binds”.

B17: MYT11626 (antibody, V domains shown)
VH: B1 VH
VL: B1 VL with H53Y, Q89H
notes: Sacituzumab variant, His at LCV position 89 (L3 01)
B17: the binding result in experiment [1] is “binds”.

B18: MYT11624 (antibody, V domains shown)
VH: B1 VH
VL: B1 VL with H53Y, Y55H
notes: Sacituzumab variant, His at LCV position 55 (L2 06)
With B18, the binding result in experiment [1] is “binds”.

B19: MYT11623 (antibody, V domains shown)
VH: B1 VH
VL: B1 VL with H53Y, R54H
notes: Sacituzumab variant, His at LCV position 54 (L2 05)
For the molecule B19, in experiment [1], the binding result is recorded as “binds”.

B20: MYT11631 (antibody, V domains shown)
VH: B1 VH
VL: B1 VL with H53Y, T94H
notes: Sacituzumab variant, His at LCV position 94 (L3 06)
With B20, the binding result in experiment [1] is “binds”.

B21: MYT13390 (antibody, V domains shown)
VH: B1 VH with Y32H
VL: B1 VL with V33H
notes: as for B2
In the case of B21, the binding result in experiment [2] is reported as “binds”.

B22: MYT11759 (antibody, V domains shown)
VH: QVQLQESGPGLVKPSETLSLTCTVSGGSISSYGVHWIRQPPGKGLEWIGVIWTSGVTDYNSALMGRVTISVDTSKNQFSLKLSSVTAADTAVYYCARDGDYDRYTMDYWGQGTLVTVSS
VL: DIVMTQSPDSLAVSLGERATINCRASKSVSTSGYSYMHWYQQKPGQPPKLLIYHASNLESGVPDRFSGSGSGTDFTLTISSLQAEDVAVYYCQHSRELPYTFGQGTKLEIK
notes: hu7E6SVG variant, His at LCV position 54 (L2 01); screened as IgG in Expi293 supernatant
As for B22, the binding result in experiment [3] is given as “binds”.

B23: MYT11768 (antibody, V domains shown)
VH: B22 VH
VL: B22 VL with H54L, S95H
notes: hu7E6SVG variant, His at LCV position 95 (L3 03); screened as IgG in Expi293 supernatant
In the case of B23, the binding result in experiment [3] was “no binding (tested: 50 nM)”.

B24: MYT11762 (antibody, V domains shown)
VH: B22 VH
VL: B22 VL with H54L, N57H
notes: hu7E6SVG variant, His at LCV position 57 (L2 04); screened as IgG in Expi293 supernatant
Turning to B24, in experiment [3], the binding result is “binds”.

B25: MYT11774 (antibody, V domains shown)
VH: B22 VH
VL: B22 VL with H54L, T101H
notes: hu7E6SVG variant, His at LCV position 101 (L3 09); screened as IgG in Expi293 supernatant
For the molecule B25, in experiment [3], the binding result is given as “binds”.

B26: MYT11761 (antibody, V domains shown)
VH: B22 VH
VL: B22 VL with H54L, S56H
notes: hu7E6SVG variant, His at LCV position 56 (L2 03); screened as IgG in Expi293 supernatant
For B26, in experiment [3], the binding result was “binds”.

B27: MYT11765 (antibody, V domains shown)
VH: B22 VH
VL: B22 VL with H54L, S60H
notes: hu7E6SVG variant, His at LCV position 60 (L2 07); screened as IgG in Expi293 supernatant
On to B27, for which the binding result in experiment [3] is “binds”.

B28: MYT11763 (antibody, V domains shown)
VH: B22 VH
VL: B22 VL with H54L, L58H
notes: hu7E6SVG variant, His at LCV position 58 (L2 05); screened as IgG in Expi293 supernatant
Turning to B28, in experiment [3], the binding result is recorded as “binds”.

B29: MYT11767 (antibody, V domains shown)
VH: B22 VH
VL: B22 VL with H54L, H94A
notes: hu7E6SVG variant, Ala in place of His at LCV position 94 (L3 02); screened as IgG in Expi293 supernatant
Consider B29, for which the binding result in experiment [3] was “binds”.

B30: MYT11760 (antibody, V domains shown)
VH: B22 VH
VL: B22 VL with H54L, A55H
notes: hu7E6SVG variant, His at LCV position 55 (L2 02); screened as IgG in Expi293 supernatant
Consider B30, for which the binding result in experiment [3] is listed as “binds”.

B31: MYT11772 (antibody, V domains shown)
VH: B22 VH
VL: B22 VL with H54L, P99H
notes: hu7E6SVG variant, His at LCV position 99 (L3 07); screened as IgG in Expi293 supernatant
In the case of B31, the binding result in experiment [3] is listed as “binds”.

B32: MYT11764 (antibody, V domains shown)
VH: B22 VH
VL: B22 VL with H54L, E59H
notes: hu7E6SVG variant, His at LCV position 59 (L2 06); screened as IgG in Expi293 supernatant
Regarding B32, the binding result in experiment [3] is given as “binds”.

B33: MYT11771 (antibody, V domains shown)
VH: B22 VH
VL: B22 VL with H54L, L98H
notes: hu7E6SVG variant, His at LCV position 98 (L3 06); screened as IgG in Expi293 supernatant
Take B33: the binding result in experiment [3] is on record as “no binding (tested: 50 nM)”.

The values above are taken from US20260274985A1 (MYTHIC THERAPEUTICS, published 2026).
